From the supplement of paper PMC6757056
± gives the standard deviation of the averaged measurements.

B1: library; a variant is named by its letters at N, in order (parent)
chain: GCUGUCACCGGUGUAUUACCCUAGUGGUCGACCGGUCUGAUGAGUCUNNNNNNAGACGAAACAGC

Legend:
[1] = variants of: B1; experiment: FACS-Seq fitted mean relative fluorescence mCherry/BFP without ligand (log10 relative fluorescence); ligand: hypoxanthine (xanthine aptamer); higher = higher reporter protein expression; conditions: HEK293T, ligand present: no
Procedure, shortened: (§1)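 Fluorescence figures are normalized fitted normal means of sequenced bin counts. Enriched, lentivirally transduced HEK293T libraries with a ribozyme-switch mCherry reporter and EF1α-BFP were held 48 h with or without ligand, then sorted into 6 mCherry/BFP bins. PCR-amplified, barcoded genomic DNA from each bin was sequenced on MiSeq. Means of log10(mCherry/BFP) were scaled to five spiked-in control ribozymes.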

[2] = variants of: B1; experiment: normalized RNA/DNA level with ligand (relative to sTRSVctl = 100) (log10 (% of sTRSVctl)); ligand: hypoxanthine (xanthine aptamer); higher = less ribozyme self-cleavage, higher mRNA level; conditions: ligand concentration (+) RNA-Seq: 5 mM, HEK293T, reporter: mCherry (pCS4076), ligand present: yes
Procedure, shortened: (§2)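 Ribozyme switch library plasmids with mCherry reporters (eGFP in certain ligand experiments) went into HEK293T cells at 4 µg per 6-well well. Where ligand was used, it was applied 1 h before transfection, and total RNA was extracted with EDTA 72 h later for reverse transcription, amplification, barcoding and sequencing. RNA level is the RNA-to-DNA read ratio normalized to a spiked-in non-cleaving sequence or to the leading sequences, then scaled and log-transformed. Scaling was ×100 with log10, the leading set comprised 25 sequences, and the cutoff was ≥100 DNA reads.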

[3] = variants of: B1; experiment: normalized RNA/DNA level without ligand (relative to sTRSVctl = 100) (log10 (% of sTRSVctl)); ligand: hypoxanthine (xanthine aptamer); higher = less ribozyme self-cleavage, higher mRNA level; conditions: HEK293T, reporter: mCherry (pCS4076), ligand present: no
Procedure, shortened: as §2

[4] = variants of: B1; experiment: FACS-Seq fitted mean relative fluorescence mCherry/BFP with ligand (log10 relative fluorescence); ligand: hypoxanthine (xanthine aptamer); ligand concentration (+) FACS-Seq: 5 mM; higher = higher reporter protein expression; conditions: HEK293T, ligand present: yes
Procedure, shortened: as §1

Variant | FACS-Seq fitted mean (log10) [1] | normalized RNA/DNA level with ligand (log10) [2] | normalized RNA/DNA level without ligand (log10) [3] | FACS-Seq fitted mean (log10) [4]
CUGCGA | -0.182 ± 0.027 | 1.98 ± 0.052 | 1.822 ± 0.01 | -0.114 ± 0.022
CUGCGC | 0.135 ± 0.0047 | 2 ± 0.033 | 1.92 ± 0.08 | 0.18 ± 0.029
CUUACC | 0.555 ± 0.022 | 1.91 ± 0.046 | 1.907 ± 0.0033 | 0.393 ± 0.022
GUGUGG | 0.0226 ± 0.011 | 1.807 ± 0.0054 | 1.27 ± 0.025 | 0.5793 ± 0.0024
GUGUGU | 0.3521 ± 0.0033 | 1.894 ± 0.0042 | 1.64 ± 0.023 | 0.466 ± 0.13
GUGUGC | 0.169 ± 0.0029 | 1.801 ± 0.013 | 1.36 ± 0.089 | 0.597 ± 0.033
GUGUGA | 0.33 ± 0.037 | 1.905 ± 0.0085 | 1.58 ± 0.026 | 0.67 ± 0.024
GUGUCG | 0.585 ± 0.017 | 1.86 ± 0.034 | 1.604 ± 0.0026 | 0.628 ± 0.037
GUUAAU | 0.528 ± 0.024 | 1.9 ± 0.02 | 1.8 ± 0.067 | 0.566 ± 0.0099
GUUAAC | 0.164 ± 0.008 | 1.95 ± 0.021 | 1.8064 ± 0.0016 | -0.269 ± 0.1
UUGCGG | -0.08 ± 0.07 | 1.99 ± 0.062 | 1.91 ± 0.044 | -0.606 ± 0.083
CUGACC | 0.127 ± 0.042 | 1.99 ± 0.037 | 1.91 ± 0.026 | 0.416 ± 0.008
CUGACA | 0.453 ± 0.025 | 1.89 ± 0.0074 | 1.821 ± 0.017 | 0.522 ± 0.12
CUGGGG | 0.345 ± 0.011 | 1.86 ± 0.05 | 1.479 ± 0.0059 | 0.484 ± 0.061
UUGUAU | -0.614 ± 0.05 | 1.94 ± 0.077 | 1.93 ± 0.026 | -0.338 ± 0.072
GUCGCA | 0.304 ± 0.021 | 1.94 ± 0.037 | 1.788 ± 0.0024 | 0.56 ± 0.0098
UUGGCG | 0.088 ± 0.024 | 2.01 ± 0.034 | 1.87 ± 0.037 | 0.648 ± 0.069
AUCGAU | 0.371 ± 0.032 | 1.9 ± 0.025 | 1.669 ± 0.0035 | 0.284 ± 0.033
AUCGAC | 0.449 ± 0.044 | 1.95 ± 0.063 | 1.81 ± 0.054 | 0.415 ± 0.12
AUCGAG | 0.2633 ± 0.00067 | 1.793 ± 0.014 | 1.35 ± 0.044 | 0.4 ± 0.028
GUGCAG | 0.0446 ± 0.026 | 1.739 ± 0.0069 | 1.3 ± 0.099 | 0.427 ± 0.039
GUGCAU | -0.413 ± 0.2 | 1.91 ± 0.038 | 1.74 ± 0.018 | -0.852 ± 0.077
GUGCAC | 0.5159 ± 0.0044 | 1.87 ± 0.046 | 1.672 ± 0.0021 | 0.536 ± 0.016
GUGCAA | 0.274 ± 0.033 | 1.904 ± 0.0021 | 1.69 ± 0.037 | 0.57 ± 0.059

Variant | FACS-Seq fitted mean (log10) [1] | normalized RNA/DNA level with ligand (log10) [2] | normalized RNA/DNA level without ligand (log10) [3] | FACS-Seq fitted mean (log10) [4]
GUGGUA | 0.478 ± 0.079 | 1.95 ± 0.026 | 1.759 ± 0.016 | 0.585 ± 0.082
GUGGUG | 0.0578 ± 0.012 | 1.83 ± 0.047 | 1.33 ± 0.043 | 0.546 ± 0.02
UUUAAU | 0.485 ± 0.013 | 1.918 ± 0.01 | 1.856 ± 0.0057 | 0.421 ± 0.053
UUUAAC | 0.697 ± 0.045 | 2 ± 0.04 | 1.86 ± 0.021 | 0.716 ± 0.07
AUGGAC | 0.677 ± 0.01 | 1.8884 ± 0.00037 | 1.68 ± 0.028 | 0.843 ± 0.058
AUGGAG | 0.0698 ± 0.0056 | 1.71 ± 0.037 | 1.208 ± 0.011 | 0.604 ± 0.023
AUGGAA | 0.751 ± 0.027 | 1.88 ± 0.044 | 1.65 ± 0.043 | 0.749 ± 0.042
AUUAAA | 0.84 ± 0.0057 | 1.89 ± 0.045 | 1.78 ± 0.021 | 0.732 ± 0.092
AUUAAG | 0.351 ± 0.019 | 1.86 ± 0.028 | 1.48 ± 0.056 | 0.65 ± 0.069
AUUAAU | 0.51 ± 0.075 | 1.89 ± 0.023 | 1.774 ± 0.0011 | 0.566 ± 0.024
GUGUUG | 0.222 ± 0.012 | 1.83 ± 0.048 | 1.34 ± 0.11 | 0.559 ± 0.033
GUUACC | -0.307 ± 0.2 | 1.91 ± 0.057 | 1.882 ± 0.018 | -0.559 ± 0.021
CUGUAU | 0.503 ± 0.018 | 1.899 ± 0.013 | 1.82 ± 0.043 | 0.384 ± 0.08
UUCUCG | 0.24 ± 0.0079 | 2.01 ± 0.034 | 1.854 ± 0.0077 | 0.362 ± 0.0084
GUCGAG | 0.248 ± 0.065 | 1.81 ± 0.062 | 1.41 ± 0.072 | 0.65 ± 0.073
GUCGAA | 0.322 ± 0.039 | 1.92 ± 0.034 | 1.69 ± 0.021 | 0.22 ± 0.072
GUCGAC | 0.245 ± 0.035 | 1.92 ± 0.031 | 1.68 ± 0.033 | 0.428 ± 0.1
AUGGCG | 0.211 ± 0.015 | 1.894 ± 0.018 | 1.38 ± 0.075 | 0.691 ± 0.042
CUCUGC | -0.384 ± 0.044 | 1.892 ± 0.0033 | 1.882 ± 0.0062 | -0.335 ± 0.067
AUGAGA | 0.392 ± 0.088 | 1.85 ± 0.062 | 1.451 ± 0.0036 | 0.697 ± 0.0095
AUGAGG | -0.0108 ± 0.028 | 1.644 ± 0.0044 | 1.15 ± 0.056 | 0.252 ± 0.059
UUCCUG | -0.284 ± 0.019 | 1.93 ± 0.041 | 1.756 ± 0.0019 | -0.379 ± 0.12
GUCUAA | 0.326 ± 0.054 | 1.94 ± 0.048 | 1.801 ± 0.0053 | 0.458 ± 0.0071
GUCUAG | 0.584 ± 0.051 | 1.87 ± 0.053 | 1.53 ± 0.044 | 0.604 ± 0.11

Variant | FACS-Seq fitted mean (log10) [1] | normalized RNA/DNA level with ligand (log10) [2] | normalized RNA/DNA level without ligand (log10) [3] | FACS-Seq fitted mean (log10) [4]
AUGUUG | 0.146 ± 0.039 | 1.85 ± 0.024 | 1.44 ± 0.075 | 0.386 ± 0.071
AUGUUU | 0.564 ± 0.028 | 1.95 ± 0.055 | 1.85 ± 0.03 | 0.43 ± 0.049
AUGCUA | 0.499 ± 0.086 | 1.966 ± 0.0068 | 1.788 ± 0.0045 | 0.706 ± 0.029
UUGUGG | 0.447 ± 0.013 | 2.01 ± 0.025 | 1.89 ± 0.0069 | 0.511 ± 0.067
UUGCCG | 0.171 ± 0.068 | 1.98 ± 0.039 | 1.83 ± 0.038 | 0.358 ± 0.006
GUCUCG | 0.392 ± 0.059 | 1.94 ± 0.094 | 1.7 ± 0.022 | 0.575 ± 0.11
GUCUCU | 0.359 ± 0.039 | 1.97 ± 0.039 | 1.98 ± 0.092 | 0.302 ± 0.052
AUGUCU | 0.305 ± 0.037 | 1.957 ± 0.019 | 1.85 ± 0.046 | 0.0818 ± 0.041
AUGCAA | 0.192 ± 0.045 | 1.87 ± 0.022 | 1.72 ± 0.038 | 0.221 ± 0.068
AUGCAG | 0.251 ± 0.022 | 1.756 ± 0.01 | 1.29 ± 0.019 | 0.682 ± 0.039
CUGUCA | 0.49 ± 0.048 | 2 ± 0.058 | 1.86 ± 0.037 | 0.439 ± 0.09
AUGUAA | 0.323 ± 0.0041 | 1.93 ± 0.036 | 1.68 ± 0.0086 | 0.279 ± 0.019
AUGUAU | -0.142 ± 0.082 | 1.925 ± 0.0046 | 1.73 ± 0.021 | 0.156 ± 0.0021
AUGUAC | 0.103 ± 0.13 | 1.893 ± 0.017 | 1.7 ± 0.026 | 0.149 ± 0.054
AUGUAG | -0.0834 ± 0.023 | 1.768 ± 0.0076 | 1.27 ± 0.1 | 0.176 ± 0.087
GUCGGC | 0.485 ± 0.026 | 1.91 ± 0.025 | 1.68 ± 0.042 | 0.81 ± 0.023
GUCGGA | -0.358 ± 0.082 | 1.98 ± 0.055 | 1.79 ± 0.027 | -0.116 ± 0.049
GUCGGG | 0.355 ± 0.068 | 1.882 ± 0.0031 | 1.58 ± 0.12 | -0.0447 ± 0.038
AUGGUA | 0.303 ± 0.033 | 1.86 ± 0.045 | 1.73 ± 0.048 | 0.304 ± 0.016
AUGGUG | -0.243 ± 0.17 | 1.79 ± 0.062 | 1.331 ± 0.0014 | 0.0458 ± 0.031
AUGGUC | 0.812 ± 0.048 | 2 ± 0.036 | 1.92 ± 0.033 | 0.6851 ± 0.0041
UUGCUU | 0.227 ± 0.004 | 1.98 ± 0.042 | 1.94 ± 0.044 | 0.0746 ± 0.042
AUCUAA | 0.268 ± 0.023 | 1.905 ± 0.019 | 1.78 ± 0.022 | 0.411 ± 0.03
UUCUAA | 0.391 ± 0.23 | 1.961 ± 0.018 | 1.85 ± 0.077 | -0.13 ± 0.28
